The values that follow come from the RNAGym collection of RNA variant scans (doi:10.7554/elife.80360).

B1: HDV Ribozyme (parent)
chain: GGCCGGCAUGGUCCCAGCCUCCUCGCUGGCGCCGGCUGGGCAACAUUCCGAGGGGACCGUCCCCUCGGUAAUGGCGAAUGGGACCCA

Variants of B1 are the subject of the data set. In words: self-cleavage, relative activity (ratio to wild type); higher = more cleavage; co-transcriptional.
Consider G35A U46A, for which the self-cleavage was 0.332. Regarding G35C U79A, the self-cleavage is 0.122. As for G35C U79C, the self-cleavage came out at 0.132. In the case of C36A U65C, the self-cleavage worked out at 0.095.

In the case of C36A U65A, the self-cleavage stood at 0.163.

G35A G55U: the self-cleavage stood at 0.577.

With G35A G55A, the self-cleavage was 0.736. For G35C G82U the value was 0.0723; for G35C G82C, 0.0519; for C36A U37C, 0.489. Consider C36A U37G, for which the self-cleavage was determined as 0.256. As for C36A U37A, the self-cleavage was 0.0831. Consider G35A U65C, for which the self-cleavage is 0.521. Take G35A U72A: the self-cleavage was 0.208. For G35C C84U the value was 0.256; for G35U C49A, 0.499; for C36A A87U, 0.0587. The result for C36A A87C reads 0.147; that for C36G C64A, 0.259. As to C36A G38C, the self-cleavage was found to be 0.0415. As for C36A G38A, the self-cleavage came out at 0.0845. With C36A G38U, the self-cleavage was 0.189.

As for G35U C63A, the self-cleavage came to 0.389.

Turning to C36A C63G, the self-cleavage was found to be 0.208. Turning to C36A C63U, the self-cleavage is 0.177. As to C36A U47C, the self-cleavage stood at 0.0519. As for C36A U47G, the self-cleavage stood at 0.208. The result for C36G C41G reads 0.151. As to G35U G54U, the self-cleavage was 0.448. G35U C36A: the self-cleavage turned out to be 0.0831.

For G35U C36U, the self-cleavage worked out at 0.101. For G35A G54U the value was 0.743; for G35C G74A, 0.0779; for G35C C66A, 0.253. Take G35C C66U: the self-cleavage was 0.229.

Take G35A G38U: the self-cleavage worked out at 0.145. Regarding G35A G38A, the self-cleavage came to 0.0923. As for G35C A51U, the self-cleavage came out at 0.396. In the case of C36A A78C, the self-cleavage stood at 0.155.

For C36A A78G, the self-cleavage came out at 0.0652. Turning to C36A A78U, the self-cleavage came out at 0. For G35U A77U the value was 0.175; for C36A U69A, 0.0755. C36A U69C: the self-cleavage is 0.0426. As to G35U G50C, the self-cleavage turned out to be 0.443. In the case of G35U G50A, the self-cleavage came to 0.472. With G35U G50U, the self-cleavage is 0.426. In the case of G35A U69G, the self-cleavage came to 0.541. In the case of G35A U69C, the self-cleavage was 0.591. Consider C36A A83U, for which the self-cleavage was 0.0219. For G35C G67U, the self-cleavage amounted to 0.133.

In the case of G35C G67C, the self-cleavage was determined as 0.0519. On to G35C G54A, for which the self-cleavage is 0.151.

Turning to G35C G54U, the self-cleavage is 0.326. In the case of C36G, the self-cleavage stood at 0.13. With C36A, the self-cleavage came out at 0.147. The result for G35U C84G reads 0.185. As for G35U C84U, the self-cleavage stood at 0.343. As for G35U C62U, the self-cleavage came to 0.486.

For the variant G35U C62A, the self-cleavage amounted to 0.261. For G35C G68C the value was 0.356. For G35U C64A, the self-cleavage stood at 0.351. As to G35U C64G, the self-cleavage is 0.403. The result for C36A G80A reads 0.12. In the case of G35C A70U, the self-cleavage came out at 0.138. For G35C A70C the value was 0.158; for G35A C84A, 0.62. The result for G35A C84U reads 0.464; that for G35U U46C, 0.0415. For C36A U60C the value was 0.166. For C36A U60A, the self-cleavage was 0.198. Take G35U C58A: the self-cleavage worked out at 0.554. As for G35U C58U, the self-cleavage stood at 0.249. For the variant G35A G52A, the self-cleavage was 0.47. For G35A G52U the value was 0.513; for G35A G52C, 0.409; for G35C C63A, 0.259. On to G35C C63U, for which the self-cleavage is 0.492. Regarding G35A G76U, the self-cleavage is 0.902. G35A G76C: the self-cleavage worked out at 0.708.

With G35A U60C, the self-cleavage was 0.554. On to G35A U60A, for which the self-cleavage amounted to 0.596. With G35U U47A, the self-cleavage turned out to be 0.332. Turning to C36G A78C, the self-cleavage was 0.161. For C36G C62G the value was 0.142; for C36A C64A, 0.0405; for C36A C64G, 0.0652. With G35C U37A, the self-cleavage stood at 0. G35C U37G: the self-cleavage stood at 0.0504. G35U G67U: the self-cleavage came out at 0.391. For the variant G35A G74C, the self-cleavage turned out to be 0.208. Consider G35A G74A, for which the self-cleavage was 0.157. For G35U A78G the value was 0.0723; for G35U, 0.454. In the case of G35C, the self-cleavage was 0.254. G35A G81U: the self-cleavage was 0.105. For the variant G35A G81C, the self-cleavage stood at 0.188. As to G35U A43G, the self-cleavage turned out to be 0.185. As to G35U A43U, the self-cleavage worked out at 0.282.

For C36A A71C, the self-cleavage is 0.0573. In the case of C36A A71G, the self-cleavage was found to be 0.0405. The result for C36A A71U reads 0.309. In the case of G35C C85U, the self-cleavage turned out to be 0.308. On to C36G C63U, for which the self-cleavage was 0.213.

For C36G A43C, the self-cleavage stood at 0.166. The result for C36G A43G reads 0.0519; that for C36A C49A, 0.0554; that for C36A C49U, 0.116. For the variant G35U U72G, the self-cleavage is 0.151. G35A G82C: the self-cleavage was 0.266. Turning to G35A G82A, the self-cleavage was found to be 0.265. On to G35A C64A, for which the self-cleavage was 0.379. For the variant G35U G68A, the self-cleavage turned out to be 0.351. As for G35A G53C, the self-cleavage worked out at 0.65.

As for G35U U69C, the self-cleavage was 0.253. On to G35U U69G, for which the self-cleavage came out at 0.302.

On to G35C G53U, for which the self-cleavage turned out to be 0.204. With G35U C57A, the self-cleavage was 0.517. Regarding G35U C57U, the self-cleavage was found to be 0.538. For the variant G35U C57G, the self-cleavage was determined as 0.415. Regarding C36A C85G, the self-cleavage is 0.18. Regarding C36A C85A, the self-cleavage came to 0.457.

In the case of C36A G55A, the self-cleavage is 0.188. Regarding C36A C62U, the self-cleavage is 0.175. As to C36A C62A, the self-cleavage was determined as 0.261. As for G35A C49A, the self-cleavage is 0.591. In the case of G35A C49U, the self-cleavage is 0.596. For G35C A87G the value was 0.205; for G35C A87C, 0.0866; for G35A G39U, 0.128. On to G35A G39A, for which the self-cleavage was found to be 0.219. Consider G35A G50C, for which the self-cleavage amounted to 0.346.

For the variant G35A G50A, the self-cleavage was determined as 0.692. Turning to C36A C75G, the self-cleavage worked out at 0.154. Regarding G35A C57U, the self-cleavage worked out at 0.686.

G35U C85U: the self-cleavage was 0.623. Regarding G35U A87U, the self-cleavage stood at 0.451. As to C36A A77C, the self-cleavage was 0.259.

Consider C36A A77U, for which the self-cleavage amounted to 0.217.

With C36G A51U, the self-cleavage was determined as 0.0519. In the case of C36G A51C, the self-cleavage came to 0.0665. With G35C U60C, the self-cleavage came to 0.237. Take G35C A78U: the self-cleavage was found to be 0.0475.

In the case of G35C A78G, the self-cleavage amounted to 0.262. C36A C86G: the self-cleavage worked out at 0.325. The result for C36A C86U reads 0.17.

As to C36A G40U, the self-cleavage came out at 0.161. Consider C36A G40C, for which the self-cleavage was determined as 0.102.

As to C36A G40A, the self-cleavage worked out at 0.234. As to C36G A83U, the self-cleavage was found to be 0.113. Turning to G35C G76C, the self-cleavage is 0.305. The result for G35C G76A reads 0.514; that for C36A G81A, 0.138; that for C36A G81C, 0.102.

C36A G52C: the self-cleavage stood at 0.138. On to C36A G52U, for which the self-cleavage came to 0.14.

In the case of C36A G52A, the self-cleavage came out at 0.158.

On to C36A C58A, for which the self-cleavage was 0.227. Consider C36A C58G, for which the self-cleavage amounted to 0.119. C36A C58U: the self-cleavage was 0.222. In the case of C36G C49G, the self-cleavage was determined as 0.0773. On to C36G C49U, for which the self-cleavage is 0.0811.

For G35A C58G, the self-cleavage was 0.594. Consider G35A C58U, for which the self-cleavage amounted to 0.478. As to G35A C58A, the self-cleavage came out at 0.46. Take G35U C75A: the self-cleavage stood at 0.138. Turning to G35U C75G, the self-cleavage worked out at 0.0378.
